In doi:10.1101/2021.06.09.447721:

Molecular target: GST-NET-Ct^ΔMIM (human) (UniProt P23975)
Assay: pull-down

## MAD2 (endogenous) (from UniProt Q13257 1-205) (natural protein)
  reduction of MAD2 binding against wild type GST-NET-Ct: 70%
